± gives the uncertainty stated by the source.
Test: protein stability index of a GFP-peptide fusion (yeast GPS) (PSI 1-4); higher = more stable; sorted into four equal gates, so the index is relative within each strain
In short: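 Tiled yeast protein peptides of 17 residues were each joined downstream of GFP, on plasmids that also express Cherry. The pooled library was maintained in yeast, and mid-log cultures in leucine-free medium were sorted into four equal gates on the GFP/Cherry ratio. Plasmids from every gate were amplified by PCR and sequenced on Illumina, with barcodes linking reads to strains. The protein stability index of a peptide is its gate-number-weighted read frequency summed over the gates.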

| Sequence | protein stability index (doa10∆) | protein stability index (pdr5∆) | protein stability index (san1∆) | protein stability index (ubr1∆) |
| --- | --- | --- | --- | --- |
| DDSDNVMSSDDENAPVA [PRE10] | 3.12 ± 0.087 | 3.42 ± 0.11 | 3.49 ± 0.11 | 3.11 ± 0.14 |
| LISIISSVIQNYDIITA [YML103C/NUP188] | 1.81 ± 0.083 | 1.42 ± 0.1 |  | 1.3 ± 0.2 |
| FLNHAFDYMNRYWVQKE [CDC53] | 2.1 ± 0.056 | 2.48 ± 0.056 | 1.89 ± 0.067 | 1.94 ± 0.046 |
| NVTTILDEIFSGCDSTK [ECM29] | 2.28 ± 0.12 | 2.8 ± 0.087 | 2.48 ± 0.073 | 2.63 ± 0.042 |
| SIDCLLILILVISFGQP [SWI1] | 1.85 ± 0.043 | 1.64 ± 0.034 | 1.52 ± 0.071 | 1.59 ± 0.029 |
| IESNKLAGVLYESRNVA [RRP6] | 2.93 ± 0.062 | 3.11 ± 0.074 | 3.07 ± 0.1 | 3.08 ± 0.062 |
| LSGSISERIVDCIIRLP [FAS1] | 1.35 ± 0.092 | 1.16 ± 0.09 | 1.23 ± 0.27 | 1.85 ± 0.046 |
| FLKYYGAHKFLDTYLPE [SIR2] | 1.66 ± 0.06 | 1.77 ± 0.061 | 1.37 ± 0.1 | 1.67 ± 0.052 |
| MSTFIFPGDSFPVDPTT [RRP40] | 2.17 ± 0.11 | 2.06 ± 0.092 | 2.35 ± 0.068 | 2.35 ± 0.074 |
| PSHYPHPYEYEIDHQEY [RRP6] | 2.41 ± 0.055 | 2.58 ± 0.055 | 2.17 ± 0.078 | 2.27 ± 0.035 |
| LSEFGIKKMLHLVWMKG [YCS4] | 3.17 ± 0.17 | 3.47 ± 0.11 | 2.31 ± 0.15 | 3.29 ± 0.17 |
| LGHTKAALGEVASMELK [SIR2] | 2.79 ± 0.085 | 2.96 ± 0.077 | 3.23 ± 0.064 | 2.98 ± 0.12 |
| SQPNNTPSFSFGKTTAN [YLR335W/NUP2] | 2.76 ± 0.054 | 2.84 ± 0.051 | 2.78 ± 0.058 | 2.87 ± 0.048 |
| KQFDSIFNSNKAKIIPG [SIR4] | 2.32 ± 0.046 | 2.33 ± 0.047 | 2.69 ± 0.064 | 2.65 ± 0.041 |
| PVDITMMENYQNISPVY [PRP8] | 2.28 ± 0.049 | 1.99 ± 0.06 | 2.2 ± 0.071 | 2.06 ± 0.038 |
| NLNRAFNGDQVIVELLP [DIS3] | 3.17 ± 0.11 | 2.92 ± 0.18 |  | 3.45 ± 0.15 |
| RTNNVPMIKAEETPSKT [NUT1] | 2.9 ± 0.1 | 2.86 ± 0.084 | 2.43 ± 0.097 | 2.66 ± 0.078 |
| RPFEGLFVISTEISPMA [RRP45] | 2.67 ± 0.048 | 2.87 ± 0.049 | 3.04 ± 0.061 | 2.86 ± 0.037 |
| TTAVEDEDDDLDEDDVN [RPB4] | 3.5 ± 0.11 | 3.27 ± 0.1 | 3.55 ± 0.15 | 3.3 ± 0.093 |
| IEQSITKNIPITHRDLH [SSN8] | 2.37 ± 0.047 | 2.92 ± 0.041 | 2.53 ± 0.046 | 2.78 ± 0.036 |
| SQVFGVARIYASFNDTF [RPS14A] | 2.05 ± 0.062 | 1.81 ± 0.045 | 2.11 ± 0.073 | 2.38 ± 0.056 |
| LNDLNHLLVQLQKNDVY [REC8] | 2.52 ± 0.051 | 2.48 ± 0.047 | 2.47 ± 0.058 | 2.17 ± 0.042 |
| LQQQTPVTIWLFEQIGI [SME1] | 1.66 ± 0.045 | 1.87 ± 0.041 | 1.64 ± 0.072 | 2 ± 0.042 |
| ADINKNFLSVITNKHQE [RPN2] | 1.93 ± 0.074 | 2.11 ± 0.06 | 1.84 ± 0.087 | 1.71 ± 0.057 |
| PALESSPVTGDNSPSED [SNF2] | 3.25 ± 0.067 | 3.29 ± 0.066 | 3.14 ± 0.069 | 3.33 ± 0.041 |
| IYSPEGLRLDGRRWNEL [SKI6] | 1.42 ± 0.16 | 1.77 ± 0.19 |  |  |

| Sequence | protein stability index (doa10∆) | protein stability index (pdr5∆) | protein stability index (san1∆) | protein stability index (ubr1∆) |
| --- | --- | --- | --- | --- |
| VLILLHAERDLALAETL [SRP68] | 2.3 ± 0.06 | 3.04 ± 0.089 | 2.96 ± 0.058 | 3.11 ± 0.057 |
| GQFVTLGCTLVTLLANV [RMP1] | 2.8 ± 0.11 | 2.89 ± 0.11 | 2.73 ± 0.1 | 2.58 ± 0.048 |
| EPYHFISNYNTKYTDDM [SRB8] | 2.96 ± 0.11 | 2.98 ± 0.07 | 3.01 ± 0.057 | 3.19 ± 0.1 |
| FDEEFDPFKTSSFNKRS [IRR1] | 2.76 ± 0.083 | 2.92 ± 0.061 | 2.81 ± 0.11 | 2.78 ± 0.084 |
| EQHNLVKKGPVRLPTKV [RPS20] | 2.45 ± 0.097 | 2.61 ± 0.16 | 2.65 ± 0.063 | 2.64 ± 0.075 |
| VYSKQATFLLTDIKDTL [MCD1] | 2.27 ± 0.062 | 2.3 ± 0.076 | 2.23 ± 0.086 | 2.3 ± 0.057 |
| IAEGKSKQDASPKPYAV [RPL8B] | 3.02 ± 0.077 | 3.38 ± 0.063 | 3.12 ± 0.06 | 3.23 ± 0.049 |
| TKPGVYYVPYSKLMPVL [RPC82] | 1.54 ± 0.059 | 1.59 ± 0.049 | 1.91 ± 0.067 | 1.96 ± 0.09 |
| FVDLVEHFLKLNIDFGS [YML103C/NUP188] | 2.53 ± 0.067 | 2.46 ± 0.06 | 2.54 ± 0.11 | 2.84 ± 0.094 |
| DYVASLNELYQTQQDLP [NSL1] | 3 ± 0.056 | 3.19 ± 0.052 | 3.12 ± 0.058 | 3.06 ± 0.039 |
| LIELSGGQRSLIALSLI [SMC2] | 2.42 ± 0.078 | 2.29 ± 0.09 | 1.86 ± 0.1 | 2.27 ± 0.035 |
| PAKIVNFEKPKNSSQLL [RPN5] | 3.06 ± 0.075 | 3.2 ± 0.068 | 3.21 ± 0.052 | 3.2 ± 0.06 |
| QWIKFLLHTLYLRPASA [SSN8] | 1.81 ± 0.051 | 1.59 ± 0.042 | 1.4 ± 0.073 | 1.72 ± 0.035 |
| EKVILVQEQLSKNRIIV [RET1] | 1.63 ± 0.087 | 1.38 ± 0.084 | 1.5 ± 0.11 | 1.37 ± 0.052 |
| KTPVFTTGGDYILSLVS [YMR129W/POM152] | 2.06 ± 0.056 | 2.13 ± 0.058 | 1.74 ± 0.064 | 1.87 ± 0.044 |
| EKLLETNVSKQNDFLFS [ECM29] | 2.64 ± 0.1 | 2.97 ± 0.093 | 1.53 ± 0.16 | 1.76 ± 0.089 |
| INDRNDRAIRKTCQWYS [DIS3] | 3.21 ± 0.087 | 3.09 ± 0.097 | 2.98 ± 0.068 | 3.25 ± 0.12 |
| YHLLNYDPIKRIDAFNA [SSN3] | 2.33 ± 0.065 | 1.77 ± 0.04 | 1.6 ± 0.074 | 1.73 ± 0.031 |
| APAFHTSGKVELPKKLL [SRB8] |  |  | 2.93 ± 0.2 | 2.84 ± 0.12 |
| TTLHGPGFQLPNRITLT [SRB8] | 2.9 ± 0.099 | 2.84 ± 0.1 | 2.74 ± 0.068 | 2.89 ± 0.061 |
| SIDPPGCVDIDDALHAK [DIS3] | 3.12 ± 0.085 | 3.19 ± 0.072 | 3.25 ± 0.071 | 3.31 ± 0.06 |
| KYKSGGKFSFSPLQKEE [SSN2] | 1.54 ± 0.072 | 1.43 ± 0.064 | 1.46 ± 0.15 | 1.53 ± 0.047 |
| CFCEDHCDKCSVVLTLQ [RPB3] | 3.12 ± 0.14 | 3.15 ± 0.14 | 2.42 ± 0.19 | 2.51 ± 0.17 |
| LFNKPPSTNAQNVNVPS [YOR098C/NUP1] | 3.15 ± 0.056 | 3.05 ± 0.051 | 3.03 ± 0.046 | 3.12 ± 0.04 |
| GRLEIFKIHTAKVKKTG [RPT4] | 2.13 ± 0.11 | 2.89 ± 0.12 | 2.33 ± 0.19 | 2.51 ± 0.097 |
| TVIEGVKEESQPDENTK [SWI3] | 3.13 ± 0.17 | 3.28 ± 0.15 | 2.74 ± 0.12 | 3 ± 0.089 |

— the supplement of paper PMC9732359
